Data as given in the supplement of paper PMC9732359.
± gives the uncertainty stated by the source.

Test: protein stability index of a GFP-peptide fusion (yeast GPS) (PSI 1-4); higher = more stable; sorted into four equal gates, so the index is relative within each strain
In short: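 Plasmids isolated from each sorting gate were PCR-amplified and Illumina-sequenced, and barcodes assigned the reads to strains. The gates, four of equal size, were set by GFP/Cherry fluorescence ratio on mid-log cultures in leucine-free medium. These cultures were yeast carrying a pooled library of tiled 17-residue yeast protein peptides fused downstream of GFP on a plasmid that also expresses Cherry. The protein stability index is the sum of every gate's read frequency times its gate number.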

## PLKRAIWLIKCCYFIEW [SRB8]
doa10∆
  protein stability index: 2.56 ± 0.1
pdr5∆
  protein stability index: 2.12 ± 0.074
san1∆
  protein stability index: 2.85 ± 0.097
ubr1∆
  protein stability index: 2.77 ± 0.071

## TDYLYRRLHDENLMVQR [YCS4]
doa10∆
  protein stability index: 2.44 ± 0.089
pdr5∆
  protein stability index: 2.08 ± 0.063
san1∆
  protein stability index: 2.45 ± 0.067
ubr1∆
  protein stability index: 2.38 ± 0.076

## FRISLGLPVGAIMNCAD [RPL23A]
doa10∆
  protein stability index: 1.95 ± 0.045
pdr5∆
  protein stability index: 1.9 ± 0.044
san1∆
  protein stability index: 1.57 ± 0.057
ubr1∆
  protein stability index: 1.7 ± 0.035

## GHIAKLMATEYQDIEGG [RPB2]
doa10∆
  protein stability index: 3.45 ± 0.29
ubr1∆
  protein stability index: 3.18 ± 0.13

## ASAKSVRSGVSKSAPSK [YAR002W/NUP60]
doa10∆
  protein stability index: 2.96 ± 0.078
pdr5∆
  protein stability index: 2.92 ± 0.1
san1∆
  protein stability index: 2.96 ± 0.064
ubr1∆
  protein stability index: 2.99 ± 0.056

## SEHFLYLAKELNLTGPK [RPN1]
doa10∆
  protein stability index: 2.98 ± 0.13
pdr5∆
  protein stability index: 2.81 ± 0.15
san1∆
  protein stability index: 2.35 ± 0.19
ubr1∆
  protein stability index: 2.98 ± 0.29

## NRKVRAGRGFTLAEVKA [RPL13A]
doa10∆
  protein stability index: 2.84 ± 0.054
pdr5∆
  protein stability index: 2.97 ± 0.061
san1∆
  protein stability index: 2.82 ± 0.043
ubr1∆
  protein stability index: 2.48 ± 0.044

## IDSQMDEASGTPDEDML [GRR1]
doa10∆
  protein stability index: 2.93 ± 0.063
pdr5∆
  protein stability index: 2.96 ± 0.065
san1∆
  protein stability index: 2.85 ± 0.068
ubr1∆
  protein stability index: 3.02 ± 0.053

## KRPRSRTLTAVHDKILE [RPS7A]
doa10∆
  protein stability index: 2.06 ± 0.054
pdr5∆
  protein stability index: 2.13 ± 0.052
san1∆
  protein stability index: 2.25 ± 0.064
ubr1∆
  protein stability index: 1.88 ± 0.041

## ATSTNPAKSASARGSYL [RPL17A]
doa10∆
  protein stability index: 2.25 ± 0.033
pdr5∆
  protein stability index: 2.59 ± 0.038
san1∆
  protein stability index: 2.53 ± 0.038
ubr1∆
  protein stability index: 2.66 ± 0.029

## HEEDQKTNIIEKAMDYA [RPN12]
doa10∆
  protein stability index: 2.52 ± 0.087
pdr5∆
  protein stability index: 2.75 ± 0.078
san1∆
  protein stability index: 2.37 ± 0.084
ubr1∆
  protein stability index: 3.02 ± 0.096

## IEPFECVEISHISKIIG [RPN6]
doa10∆
  protein stability index: 2.47 ± 0.14
san1∆
  protein stability index: 1.94 ± 0.3

## ADRNDDDEGSFAQENSE [SRB6]
doa10∆
  protein stability index: 3.08 ± 0.11
pdr5∆
  protein stability index: 3.22 ± 0.13
san1∆
  protein stability index: 2.6 ± 0.17
ubr1∆
  protein stability index: 3.22 ± 0.12

## KNDDNSCRNPEHTDVID [YIL149C/MLP2]
doa10∆
  protein stability index: 3.03 ± 0.15
pdr5∆
  protein stability index: 2.75 ± 0.099
san1∆
  protein stability index: 2.98 ± 0.093
ubr1∆
  protein stability index: 2.97 ± 0.086

## AAKTRSYNWGAKAKRRH [RPL37A]
doa10∆
  protein stability index: 3.7 ± 0.15
pdr5∆
  protein stability index: 3.39 ± 0.082
san1∆
  protein stability index: 3 ± 0.099
ubr1∆
  protein stability index: 3.49 ± 0.085

## VLPNTALKTSIQHVGMI [FAS1]
doa10∆
  protein stability index: 2.95 ± 0.12
pdr5∆
  protein stability index: 2.6 ± 0.16
san1∆
  protein stability index: 1.93 ± 0.14
ubr1∆
  protein stability index: 2.4 ± 0.24

## LGYARFILLDRLRQFNL [SMC4]
doa10∆
  protein stability index: 2.36 ± 0.061
pdr5∆
  protein stability index: 1.8 ± 0.065
san1∆
  protein stability index: 1.75 ± 0.079
ubr1∆
  protein stability index: 1.63 ± 0.061

## SAIRQVFERFKTKILEV [IRR1]
doa10∆
  protein stability index: 1.87 ± 0.045
pdr5∆
  protein stability index: 2.03 ± 0.06
san1∆
  protein stability index: 1.71 ± 0.07
ubr1∆
  protein stability index: 2.26 ± 0.05

## LLDAGCKVVAEMIRGRS [SKP1]
pdr5∆
  protein stability index: 2.06 ± 0.14
ubr1∆
  protein stability index: 1.91 ± 0.1

## LNTFHFAGVASKKVTSG [RPO21]
doa10∆
  protein stability index: 2.67 ± 0.093
pdr5∆
  protein stability index: 3.13 ± 0.078
san1∆
  protein stability index: 2.9 ± 0.065
ubr1∆
  protein stability index: 2.9 ± 0.077

## VATEPLLDILVKGETRI [PRP8]
doa10∆
  protein stability index: 2.43 ± 0.057
pdr5∆
  protein stability index: 2.41 ± 0.044
san1∆
  protein stability index: 2.94 ± 0.06
ubr1∆
  protein stability index: 1.8 ± 0.032

## GDIVRMLETAGFSMNNP [SMC3]
doa10∆
  protein stability index: 3.08 ± 0.095
pdr5∆
  protein stability index: 3.26 ± 0.1
san1∆
  protein stability index: 3.04 ± 0.089
ubr1∆
  protein stability index: 3.16 ± 0.054

## ISHDDLQAVAVAVSTKK [FAS2]
doa10∆
  protein stability index: 1.47 ± 0.29
pdr5∆
  protein stability index: 1.48 ± 0.099
san1∆
  protein stability index: 1.19 ± 0.12
ubr1∆
  protein stability index: 1.32 ± 0.23

## SRFSPEKLAVSALEQAI [YGL100W/SEH1]
doa10∆
  protein stability index: 2.19 ± 0.098
pdr5∆
  protein stability index: 2.36 ± 0.12
san1∆
  protein stability index: 1.9 ± 0.077
ubr1∆
  protein stability index: 2.42 ± 0.13

## EKLTSKSLDEQLLLLSD [LRP1]
doa10∆
  protein stability index: 3.16 ± 0.077
pdr5∆
  protein stability index: 3.44 ± 0.065
san1∆
  protein stability index: 2.94 ± 0.038
ubr1∆
  protein stability index: 3.31 ± 0.036

## IMNELYRMKGGRVTFIP [SMC3]
doa10∆
  protein stability index: 2.12 ± 0.23
ubr1∆
  protein stability index: 3.66 ± 0.16

## HYNDSQQLRTWKRQISY [SRB8]
doa10∆
  protein stability index: 3.25 ± 0.085
pdr5∆
  protein stability index: 3.39 ± 0.14
san1∆
  protein stability index: 3.21 ± 0.09
ubr1∆
  protein stability index: 3.32 ± 0.19
